± gives the uncertainty stated by the source.
B1: KAT8 regulatory NSL complex subunit 2, residues 28 to 91; numbered along this chain, Q9H9L4 (parent)
chain: CAFTHRPCSHPRLEGQEFCIKHILEDKNAPFKQCSYISTKNGKRCPNAAPKPEKKDGVSFCAEH

Variants of: B1
Assay: abundance fitness (aPCA) (normalised: wild type 0, dead -1); higher = more abundant; growth selection in yeast, the domain comes from the species named
Conditions: Homo sapiens

Abundance fitness, by site and new letter:
Y36: W -0.122 ± 0.069, G -0.085 ± 0.049, F -0.015 ± 0.08, S -0.06 ± 0.056, C -0.173 ± 0.093, Q -0.078 ± 0.11, P -0.298 ± 0.087, T -0.054 ± 0.066, I -0.131 ± 0.092, M -0.216 ± 0.069, E -0.183 ± 0.093, V -0.129 ± 0.045, D -0.162 ± 0.084, A -0.096 ± 0.056, R -0.055 ± 0.058, K -0.015 ± 0.069, L -0.156 ± 0.05, N -0.157 ± 0.13, H -0.016 ± 0.089
I20: S -0.136 ± 0.068, M -0.031 ± 0.066, F -0.115 ± 0.074, L -0.057 ± 0.042, P -0.184 ± 0.072, K -0.195 ± 0.084, Q -0.091 ± 0.08, W -0.201 ± 0.064, D -0.208 ± 0.13, R -0.117 ± 0.045, N -0.328 ± 0.21, E -0.129 ± 0.07, G -0.104 ± 0.048, C -0.14 ± 0.064, T -0.2 ± 0.082, A -0.048 ± 0.063, H -0.179 ± 0.15, Y -0.151 ± 0.078
N28: S -0.006 ± 0.057, T -0.031 ± 0.068, R -0.049 ± 0.041, H -0.028 ± 0.13, F -0.083 ± 0.11, V -0.121 ± 0.056, D -0.252 ± 0.17, E -0.07 ± 0.084, G -0.11 ± 0.064, L -0.093 ± 0.051, C -0.142 ± 0.13, A -0.118 ± 0.1, W -0.312 ± 0.068, P -0.215 ± 0.051, Q -0.069 ± 0.076, K -0.1 ± 0.088, M -0.107 ± 0.079
C19: H -1.63 ± 0.37, K -0.572 ± 0.091, S -0.851 ± 0.067, D -0.994 ± 0.13, M -1.08 ± 0.091, F -1.16 ± 0.37, P -0.809 ± 0.11, E -1 ± 0.08, R -1.17 ± 0.063, A -0.973 ± 0.061, N -1.27 ± 0.12, G -0.941 ± 0.056, W -1.28 ± 0.091, Q -0.878 ± 0.08, Y -1.38 ± 0.21, I -1.19 ± 0.069, T -0.908 ± 0.07
I37: D -0.302 ± 0.15, M 0.046 ± 0.092, K -0.107 ± 0.1, G -0.022 ± 0.04, P -0.142 ± 0.079, Q -0.031 ± 0.12, E -0.042 ± 0.095, R -0.045 ± 0.045, C -0.032 ± 0.12, A -0.177 ± 0.062, H 0.039 ± 0.15, N -0.042 ± 0.13, L -0.044 ± 0.047
H22: A -0.769 ± 0.053, T -0.877 ± 0.086, D -0.904 ± 0.098, K -0.678 ± 0.087, W -1.4 ± 0.2, N -0.768 ± 0.12, S -0.729 ± 0.061, Y -1.07 ± 0.16, C -0.383 ± 0.13, R -0.812 ± 0.053, M -1.16 ± 0.1, I -1.41 ± 0.15, V -1.36 ± 0.059, Q -0.506 ± 0.12, L -1.34 ± 0.07, G -0.789 ± 0.053, F -1.81 ± 0.27
I23: Y -0.296 ± 0.15, F -0.404 ± 0.15, W -0.286 ± 0.049, M -0.204 ± 0.065, C -0.154 ± 0.069, A -0.078 ± 0.068, D -0.35 ± 0.15, P -0.627 ± 0.062, T -0.178 ± 0.078, Q -0.136 ± 0.085, E -0.351 ± 0.1, H -0.246 ± 0.1, V -0.124 ± 0.048, G -0.295 ± 0.047, S -0.156 ± 0.06, L -0.143 ± 0.042, N -0.463 ± 0.26, K -0.165 ± 0.085
K27: H -0.094 ± 0.11, M -0.269 ± 0.074, P -0.091 ± 0.058, N -0.044 ± 0.097, R -0.12 ± 0.057, C -0.194 ± 0.082, W -0.215 ± 0.085, I -0.091 ± 0.063, G -0.191 ± 0.068, E -0.079 ± 0.074, D -0.172 ± 0.097, S -0.093 ± 0.049, F -0.3 ± 0.079, Q -0.149 ± 0.095, V -0.104 ± 0.062, A -0.019 ± 0.089, Y -0.202 ± 0.067, L -0.158 ± 0.041
A29: K -0.186 ± 0.079, Q -0.278 ± 0.14, V -0.196 ± 0.047, E -0.308 ± 0.083, G -0.128 ± 0.048, P -0.225 ± 0.058, L -0.217 ± 0.065, H -0.208 ± 0.11, S -0.048 ± 0.072, Y -0.287 ± 0.1, T -0.133 ± 0.084, R -0.167 ± 0.037, W -0.422 ± 0.068, N -0.22 ± 0.15, M -0.204 ± 0.074, C -0.151 ± 0.083, I -0.358 ± 0.1, D -0.225 ± 0.1
F18: S -0.59 ± 0.055, T -0.408 ± 0.053, R -0.325 ± 0.041, K -0.472 ± 0.093, Y -0.11 ± 0.084, N -0.61 ± 0.1, L -0.139 ± 0.052, V -0.509 ± 0.062, W -0.356 ± 0.073, M -0.196 ± 0.063, Q -0.642 ± 0.12
P30: A -0.205 ± 0.06

From the Human Domainome abundance scans (Beltran et al. 2025)
